Measurements from article PMC9710867, “Molecular architecture of the Chikungunya virus replication complex” (Science Advances, 2022).

B2: ONNV nsP4, full length (amino acids 1904 to 2514) (enzyme)
chain: IFSSDTGQGHLQQKSVRQTTLPVNIVEEVHEEKCYPPKLDEIKEQLLLKRLQESASTANRSRYQSRKVENMKATIIHRLKEGCRLYLASDTPRVPSYRITYPAPVYSPSISIKLNNPETAVAVCNEFLARNYPTVASYQVTDEYDAYLDMVDGSESCLDRATFNPSKLRSYPKQHSYHAPTIRSAVPSPFQNTLQNVLAAATKRNCNVTQMRELPTMDSAVFNVECFKKYACNQEYWREFASSPIRVTTENLTMYVTKLKGPKAAALFAKTHNLLPLQEVPMDRFTMDMKRDVKVTPGTKHTEERPKVQVIQAAEPLATAYLCGIHRELVRRLNAVLLPNVHTLFDMSAEDFDAIISTHFKPGDAVLETDIASFDKSQDDSLALTAMMLLEDLGVDQPILDLIEAAFGEISSCHLPTGTRFKFGAMMKSGMFLTLFVNTLLNITIASRVLEERLTTSACAAFIGDDNIIHGVVSDALMAARCATWMNMEVKIIDAVVSEKAPYFCGGFILHDTVTGTSCRVADPLKRLFKLGKPLAAGDEQDEDRRRALADEVTRWQRTGLITELEKAVYSRYEVQGITAVITSMATFASSKENFKKLRGPVVTLYGGPK
notes: Contact residues in the text (D219, E392, D393, D402, E405; NTD 1 to 105) count on nsP4 itself; also called o'nyong-nyong virus nsP4; nsP4 RdRp
B3: CHIKV nsP1 mutant (H37A; amino acids 1 to 535) with internal StrepII-3XFLAG (enzyme)
chain: MDPVYVDIDADSAFLKALQRAYPMFEVEPRQVTPNDAANARAFSHLAIKLIEQEIDPDSTILDIGSAPARRMMSDRKYHCVCPMRSAEDPERLANYARKLASAAGKVLDRNISGKIGDLQAVMAVPDTETPTFCLHTDVSCRQRADVAIYQDVYAVHAPTSLYHQAIKGVRLAYWVGFDTTPFMYNAMAGAYPSYSTNWADEQVLKAKNIGLCSTDLTEGRRGKLSIMRGKKLEPCDRVLFSVGSTLYPESRKLLKSWHLPSVFHLKGKLSFTCRCDTVVSCEGYVVKRITMSPGLYGKTTGYAVTHHADGFLMCKTTDTVDGERVSFSVCTYVPATICDQMTGILATEVTPEDAQKLLVGLNQRIVVNGRTQRNTNTMKNYMIPVVAQAFSKWAKECRKDMEDEKLLGVRERTLTCCCLWAFKKQKTHTVYKRPDTQSIQKVQAEFDSFVVPSLWSSGLSIPLRTRIKWLLSKVPKTDLTPYSGDAQEARDAEKEAEEEREAELTLEALPPLQAAQEDVQVEIDVEQLEDRAGA
notes: nonstructural protein 1 (nsP1) of chikungunya virus, amino acids 1 to 535 of the nonstructural polyprotein; also called nsP1 ring; nsP1 dodecameric ring; not shown: StrepII, internal (after residue 516), kept; copies: 12

Key:
Experiment in all cases: cryo-EM structure; single-particle cryo-EM of the reconstituted nsP1 + 2 + 4 RC core mixed with T2 RNA and NTP in 1x buffer Z at 1:10:100 molar ratio; C1, 2.8 Å
[1] = target: B2; settings: both partners purified
[2] = target: B3; settings: both partners purified
[3] = target: the molecule itself

B1: CHIKV nsP2, full length (amino acids 536 to 1333) (enzyme)
chain: GIIETPRGAIKVTAQPTDHVVGEYLVLSPQTVLRSQKLSLIHALAEQVKTCTHSGRAGRYAVEAYDGRVLVPSGYAISPEDFQSLSESATMVYNEREFVNRKLHHIAMHGPALNTDEESYELVRAERTEHEYVYDVDQRRCCKKEEAAGLVLVGDLTNPPYHEFAYEGLKIRPACPYKIAVIGVFGVPGSGKSAIIKNLVTRQDLVTSGKKENCQEITTDVMRQRGLEISARTVDSLLLNGCNRPVDVLYVDEAFACHSGTLLALIALVRPRQKVVLCGDPKQCGFFNMMQMKVNYNHNICTQVYHKSISRRCTLPVTAIVSSLHYEGKMRTTNEYNKPIVVDTTGSTKPDPGDLVLTCFRGWVKQLQIDYRGHEVMTAAASQGLTRKGVYAVRQKVNENPLYASTSEHVNVLLTRTEGKLVWKTLSGDPWIKTLQNPPKGNFKATIKEWEVEHASIMAGICSHQMTFDTFQNKANVCWAKSLVPILETAGIKLNDRQWSQIIQAFKEDKAYSPEVALNEICTRMYGVDLDSGLFSKPLVSVYYADNHWDNRPGGKMFGFNPEAASILERKYPFTKGKWNINKQICVTTRRIEDFNPTTNIIPANRRLPHSLVAEHRPVKGERMEWLVNKINGHHVLLVSGCSLALPTKRVTWVAPLGVRGADYTYNLELGLPATLGRYDLVVINIHTPFRIHHYQQCVDHAMKLQMLGGDSLRLLKPGGSLLIRAYGYADRTSERVICVLGRKFRSSRALKPPCVTSNTEMFFLFSNFDNGRRNFTTHVMNNQLNAAFVGQATRAGC
notes: nonstructural protein 2 (nsP2) of chikungunya virus, full length, amino acids 536 to 1333 of the nonstructural polyprotein; Contact residues in the text (R56, R59, Y60, R101; nsP2h 1 to 465) count on nsP2 itself; The His6-SUMO tag is called cleavable; Only the helicase region is built in the cryo-EM model; also called nsP2 helicase-protease
In the case of B1, the “stoichiometry N” value [1] is reported as 1 nsP2 per nsP4.

For B2, the “stoichiometry N” value [2] was 12 nsP1 per nsP4.

In the case of B3, the “stoichiometry N” value [3] is reported as 12.
